Source: article PMC8621939, “Cryo-EM Structure of Mechanosensitive Channel YnaI Using SMA2000: Challenges and Opportunities” (Membranes, 2021)

Target: the molecule itself
Test: cryo-EM structure; single-particle cryo-EM of SMA2000-purified YnaI, Titan Krios 300 kV; 3D classification without symmetry, final refinement with C7 symmetry, 2.4 Å; NCMN Buffer E (40 mM HEPES pH 7.8, 100 mM NaCl, 0.1 mM TCEP)

B1: low-conductance mechanosensitive channel-like (YnaI), wild type (natural protein, Escherichia coli, UniProt P0AEB5 1-343, looked up)
chain: MIAELFTNNALNLVIIFGSCAALILMSFWFRRGNRKRKGFLFHAVQFLIYTIIISAVGSIINYVIENYKLKFITPGVIDFICTSLIAVILTIKLFLLINQFEKQQIKKGRDITSARIMSRIIKITIIVVLVLLYGEHFGMSLSGLLTFGGIGGLAVGMAGKDILSNFFSGIMLYFDRPFSIGDWIRSPDRNIEGTVAEIGWRITKITTFDNRPLYVPNSLFSSISVENPGRMTNRRITTTIGLRYEDAAKVGVIVEAVREMLKNHPAIDQRQTLLVYFNQFADSSLNIMVYCFTKTTVWAEWLAAQQDVYLKIIDIVQSHGADFAFPSQTLYMDNITPPEQGR
notes: YnaI, MscS-like mechanosensitive channel of Escherichia coli, 343 aa, wild type, full length; Homoheptamer in SMA2000 native lipid particles; Only TM4, TM5 and the cytoplasmic domain are resolved in the map; seven phosphatidylethanolamine molecules were modelled; Cloned in pRSFDuet-1; also called mechanosensitive-like YnaI channel; SMA2000-YnaI; source: E. coli BL21 (DE3) pLysS, extracted from …
stoichiometry N: 7
